The RNAGym collection of RNA variant scans (doi:10.1093/nar/gkz1192)

B1: CPEB3 Ribozyme (parent)
chain: UAACAGGGGGCCACAGCAGAAGCGUUCACGUCGCAGCCCCUGUCAGAUUCUGGUGAAUCUGCGAAUUCUGCUGUAUAUCUC

Variants of: B1
Assay: self-cleavage, relative activity (ratio to wild type); higher = more cleavage; in vitro, sequencing
Procedure, shortened: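 Barcoded CPEB3 ribozyme mutants, produced by rounds of error-prone PCR, self-cleaved while being transcribed with T7 RNA polymerase for 5 hours at 37°C and during a subsequent 15 min DNase I step before EDTA was added. Sequencing of template-switched cDNA on Illumina gave cleaved and total reads, and DNA sequencing assigned barcodes to variants. Each variant's relative activity is its cleaved/total read fraction divided by the unmutated ribozyme's fraction, averaged across three batches. A variant needed a minimum of 5 reads.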

Row | Variant | self-cleavage
1 | UAACAGGGGGCCACAGCAGAAGCGUUCACGUCGCAGCCCCUGUCAGAAUCUGGUAAAUCUGCGAAUUCUGCUGUAUAUCUC [U48A G55A] | 0.21
2 | UAACAGGGGGCCACAGCAGAAGCGUUCACGUCGCAGCCCCUGUCAGAAUCUGGUGAAUCUGUGAAUUCUGCUGUAUAUCUC [U48A C62U] | 0.43
3 | UAACAGGGGGCCACAGCAGAAGCGUUCACGUCGCAGCCCCUGUCAGAAUCCGGUGAAUCUGCGAAUUCUGCUGUAUAUCUC [U48A U51C] | 0.44
4 | UAACAGGGGGCCACAGCAGAAGCGUUCACGUCGCAGCCCCUGUCAGAAUCUGGUGAAACUGCGAAUUCUGCUGUAUAUCUC [U48A U58A] | 0.5
5 | UAACAGGGGGCCACAGCAGAAGCGUUCACGUCGCAGCCCCUGUCAGAAACUGGUGAAUCUGCGAAUUCUGCUGUAUAUCUC [U48A U49A] | 0.38
6 | UAACAGGGGGCCACAGCAGAAGCGUUCACGUCGCAGCCCCUGUCAGAAGCUGGUGAAUCUGCGAAUUCUGCUGUAUAUCUC [U48A U49G] | 0.21
7 | UAACAGGGGGCCACAGCAGAAGCGUUCACGUCGCAGCCCCUGUCAGAACCUGGUGAAUCUGCGAAUUCUGCUGUAUAUCUC [U48A U49C] | 0.3
8 | UAACAGGGGGCCACAGCAGAAGCGUUCACGUCGCAGCCCCUGUCAGUUUCUGGUGAAUCUGCGAAUUCUGCUGGAUAUCUC [A47U U74G] | 0.96
9 | UAACAGGGGGCCACAGCAGAAGCGUUCACGUCGCAGCCCCUGUCAGAAUCUGGUGCAUCUGCGAAUUCUGCUGUAUAUCUC [U48A A56C] | 0.26
10 | UAACAGGGGGCCACAGCAGAAGCGUUCACGUCGCAGCCCCUGUCAGAAUCUGGUGGAUCUGCGAAUUCUGCUGUAUAUCUC [U48A A56G] | 0.33
11 | UAACAGGGGGCCACAGCAGAAGCGUUCACGUCGCAGCCCCUGUCAGAAUCUGGUGUAUCUGCGAAUUCUGCUGUAUAUCUC [U48A A56U] | 0.31
12 | UAACAGGGGGCCACAGCAGAAGCGUUCACGUCGCAGCCCCUGUCAGAAUCUGGUGAAUCUGCGAAUUCUGCUGUAUAUGUC [U48A C79G] | 0.73
13 | UAACAGGGGGCCACAGCAGAAGCGUUCACGUCGCAGCCCCUGUCAGAAUCUGGUGAGUCUGCGAAUUCUGCUGUAUAUCUC [U48A A57G] | 0.47
14 | UAACAGGGGGCCACAGCAGAAGCGUUCACGUCGCAGCCCCUGUCAGAAUCUGGUGAUUCUGCGAAUUCUGCUGUAUAUCUC [U48A A57U] | 1.09
15 | UAACAGGGGGCCACAGCAGAAGCGUUCACGUCGCAGCCCCUGUCAGUUUCUGGUGAAUCUGCGAAUUCUGCUGUACAUCUC [A47U U76C] | 0.59
16 | UAACAGGGGGCCACAGCAGAAGCGUUCACGUCGCAGCCCCUGUCAGUUUCUGGUGAAUCUGCGAAUUCUGCUGUAAAUCUC [A47U U76A] | 0.82
17 | UAACAGGGGGCCACAGCAGAAGCGUUCACGUCGCAGCCCCUGUCAGUUUCUGGUGAAUCUGCGAAUUCUGCUGUAUAACUC [A47U U78A] | 0.7

Row | Variant | self-cleavage
18 | UAACAGGGGGCCACAGCAGAAGCGUUCACGUCGCAGCCCCUGUCAGUUUCUGGUGAAUCUGCGAAUUCUGCUGUAUACCUC [A47U U78C] | 0.57
19 | UAACAGGGGGCCACAGCAGAAGCGUUCACGUCGCAGCCCCUGUCAGAAUCUGGUGAAUCUGCGAAUUCUGAUGUAUAUCUC [U48A C71A] | 0.2
20 | UAACAGGGGGCCACAGCAGAAGCGUUCACGUCGCAGCCCCUGUCAGAAUCUGGUGAAUCUGCGAAUUCUGCUGUGUAUCUC [U48A A75G] | 0.32
21 | UAACAGGGGGCCACAGCAGAAGCGUUCACGUCGCAGCCCCUGUCAGAAUCUGGUGAAUCUGCGAAUUCUGCUGUUUAUCUC [U48A A75U] | 0.61
22 | UAACAGGGGGCCACAGCAGAAGCGUUCACGUCGCAGCCCCUGUCAGUUUCUGGUGAAUCUGCGAAUUCUGCUGUAUAUCCC [A47U U80C] | 0.66
23 | UAACAGGGGGCCACAGCAGAAGCGUUCACGUCGCAGCCCCUGUCAGUUUCUGGUGAAUCUGCGAAUUCUGCUGUAUAUCAC [A47U U80A] | 0.51
24 | UAACAGGGGGCCACAGCAGAAGCGUUCACGUCGCAGCCCCUGUCAGUUUCUGGUGAAUCUGCGAAUUCUGCUGUAUAUCGC [A47U U80G] | 0.8
25 | UAACAGGGGGCCACAGCAGAAGCGUUCACGUCGCAGCCCCUGUCAGAAUCUGGUGAAUCUGCGAAUUCUGCUGUAUAUCUC [U48A] | 0.48
26 | UAACAGGGGGCCACAGCAGAAGCGUUCACGUCGCAGCCCCUGUCAGAAUCUGGUGAAUAUGCGAAUUCUGCUGUAUAUCUC [U48A C59A] | 0.44
27 | UAACAGGGGGCCACAGCAGAAGCGUUCACGUCGCAGCCCCUGUCAGAAUCUGGUGAAUCUGCGUAUUCUGCUGUAUAUCUC [U48A A64U] | 0.14
28 | UAACAGGGGGCCACAGCAGAAGCGUUCACGUCGCAGCCCCUGUCAGAAUCUGGUGAAUCUGCGGAUUCUGCUGUAUAUCUC [U48A A64G] | 0.26
29 | UAACAGGGGGCCACAGCAGAAGCGUUCACGUCGCAGCCCCUGUCAGAAUCUGGUGAAUCUGCGAUUUCUGCUGUAUAUCUC [U48A A65U] | 0.15
30 | UAACAGGGGGCCACAGCAGAAGCGUUCACGUCGCAGCCCCUGUCAGAAUCUGGUGAAUCUGCGAGUUCUGCUGUAUAUCUC [U48A A65G] | 0.4
31 | UAACAGGGGGCCACAGCAGAAGCGUUCACGUCGCAGCCCCUGUCAGAAUUUGGUGAAUCUGCGAAUUCUGCUGUAUAUCUC [U48A C50U] | 0.35
32 | UAACAGGGGGCCACAGCAGAAGCGUUCACGUCGCAGCCCCUGUCAGAAUCUGGUGAAUCUGCGAAUUCUGCUGUAUGUCUC [U48A A77G] | 0.54
33 | UAACAGGGGGCCACAGCAGAAGCGUUCACGUCGCAGCCCCUGUCAGAAUCUGGAGAAUCUGCGAAUUCUGCUGUAUAUCUC [U48A U54A] | 0.43
34 | UAACAGGGGGCCACAGCAGAAGCGUUCACGUCGCAGCCCCUGUCAGAAUCUGGCGAAUCUGCGAAUUCUGCUGUAUAUCUC [U48A U54C] | 0.39
